Assay results: patent publication US20040156824A1
Ends that are not written are not given here.

B1: Lym-1/3A immunoconjugate (peptide, UniProt P60568 64-78, looked up, part only)
chain: FYMPKKATELKHLQC
modifications: also: conjugated to murine antibody Lym-1
B2: Lym-1/B1 immunoconjugate (peptide, UniProt P60568 57-78, looked up, part only)
chain: TRMLTFKFYMPKKATELKHLQC
modifications: also: conjugated to murine antibody Lym-1
B3: Lym-1/E6 immunoconjugate (peptide, UniProt P60568 42-58, looked up, part only)
chain: QMILNGINNYKNPKLTR
modifications: also: conjugated to murine antibody Lym-1
B4: 125I-labeled Lym-1 F(ab')2 fragment (antibody, from another filing, mouse IgG2a, V domains shown)
VH: QLKESGPGLVAPSQSLSITCTISGFSLTSYGVHWVRQPPGKGLEWLVVIWSDGSTTYNSALKSRLSISKDNSKSQVFLKMNSLQTDDTAIYYCASHYGSTLAFASWGHGTLVTVSA
VL: DIQMTQSPASLSASVGETVTIICRASVNIYSYLAWYQQKQGKSPQLLVYNAKILAEGVPSRFSGSGSGTQFSLKINSLQPEDFGSYYCQHHYGTFTFGSGTKLEIK

Tests used:
[1] = molecular target: nucleohistones expressed in the nucleus of mammalian cells; assay: radioimmunoassay on paraformaldehyde-acetone-treated cells
[2] = molecular target: variant of the HLA-Dr antigen expressed on the cell surface of human B-lymphocytes and malignant lymphomas (human); assay: indirect cell binding assay
[3] = molecular target: variant of the HLA-Dr antigen expressed on the cell surface of human B-lymphocytes and malignant lymphomas (human); assay: live cell binding assay
[4] = molecular target: nucleohistones expressed in the nucleus of mammalian cells; assay: cell binding assay (printed as live cell binding assay)
[5] = molecular target: variant of the HLA-Dr antigen expressed on the cell surface of human B-lymphocytes and malignant lymphomas (human); assay: live cell radioimmunoassay on Raji cells

| Molecule | percent of the antibody binding reactivity retained against unconjugated antibody [2] | also measured |
| --- | --- | --- |
| 125I-labeled TNT-1 F(ab')2 fragment (antibody) | – | immunoreactivity [1]: > 80% |
| Lym-1/3B immunoconjugate (from UniProt P60568 53-78) | > 75% | – |
| Lym-1/4A immunoconjugate (from UniProt P60568 125-153) | > 75% | – |
| Lym-1/4B immunoconjugate (from UniProt P60568 107-153) | > 75% | – |
| Lym-1/A3 immunoconjugate (from UniProt P60568 57-92) | > 75% | – |
| Lym-1/IL-2 immunoconjugate (from UniProt P60568 21-153) | – | percent of the antibody binding reactivity retained against unconjugated antibody [3]: > 75% |
| TNT-1/IL-2 immunoconjugate (from UniProt P60568 21-153) | – | percent of the antibody binding reactivity retained against unconjugated antibody [4]: > 75% |
| B1 | > 75% | – |
| B2 | > 75% | – |
| B3 | > 75% | – |
| B4 | – | percent of radiolabeled preparation bound to cells (immunoreactivity) [5]: 80% |
